Assay in all cases: cryo-EM structure
The target of assay [1] is Escherichia coli DegQ, protease deficient S187A mutant (Escherichia coli) (UniProt P39099).
Assay [2] has the same target. This is another data set of the same source.
Assay [3] shares this target. This is another data set of the same source.

Several values for one entry are separate records, joined by “and”; a condition that tells them apart may be missing. Equal values may be shown once. Read-outs that look alike come from different tables or passages of the source.

For “Escherichia coli DegQ, protease deficient S187A mutant (from UniProt P39099 28-455) (enzyme)”, the stoichiometry N in assay [1] was 12 protomers; in assay [2] it was 12 protomers; in assay [3], 24 protomers and 12 protomers.

Broadly, the stoichiometry N is the number of molecules, sites or subunits per partner or assembly.

Source of the values: publication PMC3272482.
